One molecule from patent US20200308223A1 (IMMUNWORK, published 2020) can be followed below.

In this assay the target is T1, human CD19 (human, UniProt P15391 20-556).
T1 construct: whole, on cells; also called CD19 on Raji cells; CD19 on Ramos cells
T1 sequence (looked up): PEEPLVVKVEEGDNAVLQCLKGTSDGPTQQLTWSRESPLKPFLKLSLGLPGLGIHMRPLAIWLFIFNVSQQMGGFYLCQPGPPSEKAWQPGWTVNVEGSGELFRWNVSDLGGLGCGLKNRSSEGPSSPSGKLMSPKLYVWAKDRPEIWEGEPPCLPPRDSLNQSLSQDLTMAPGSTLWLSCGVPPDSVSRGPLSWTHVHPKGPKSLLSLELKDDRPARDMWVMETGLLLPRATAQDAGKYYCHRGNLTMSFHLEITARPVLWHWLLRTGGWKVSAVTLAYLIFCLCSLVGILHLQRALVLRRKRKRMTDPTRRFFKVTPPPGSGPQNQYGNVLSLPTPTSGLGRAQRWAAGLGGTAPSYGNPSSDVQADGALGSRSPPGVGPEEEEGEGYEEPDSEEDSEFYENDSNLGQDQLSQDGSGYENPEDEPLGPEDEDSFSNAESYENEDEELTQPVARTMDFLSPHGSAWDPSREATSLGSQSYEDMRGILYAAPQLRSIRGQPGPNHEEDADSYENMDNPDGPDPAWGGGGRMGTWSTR
Put plainly: flow cytometry (FACS) on CD19-expressing Raji cells, 0.001 µg/ml construct, FITC goat anti-human IgG.Fc detection. The procedure: The assay was performed by incubating 1×10⁶CD19-expressing Raji cells with 0.001 μg/ml of each construct in PBS, 1% BSA on ice for 30 minutes, using anti-CD19 antibody (RB4v1.2), (scFv α CD19)-Fc-MBM-1 X 2 DOTA bundles and (scFv α CD19)-Fc-MBM-3 X 2 DOTA bundles as positive controls. The anti-HER2 antibody (trastuzumab) was used as a negative control. The staining of cells was analyzed by FACS (FACSCanto II; BD Biosciences) using FITC-conjugated goat anti-human IgG.Fc (diluted 1:200 in PBS/BSA) (Caltag, Buckingham, UK) at 4° C. for 20 minutes in the dark.

B1: stabilized (scFv α CD19)-Fc-MBM-3 X 2 DOTA bundles (Fc fusion)
chain: EIVLTQSPAIMSASPGERVTMTCSASSGVNYMHWYQQKPGTSPRRWIYDTSKLASGVPARFSGSGSGTDYSLTISSMEPEDAATYYCHQRGSYTFGGGTKLEIKRGSTSGSGKPGSGEGSTKGQVQLVQPGAEVVKPGASVKLSCKTSGYTFTSNWMHWVKQAPGQGLEWIGEIDPSDSYTNYNQNFQGKAKLTVDKSTSTAYMEVSSLRSDDTAVYYCARGSNPYYYAMDYWGQGTSVTVSSGGGASDKTHTCPPCPAPELLGGPSVFLFPPKPKDTLMISRTPEVTCVVVDVSHEDPEVKFNWYVDGVEVHNAKTKPREEQYNSTYRVVSVLTVLHQDWLNGKDYKCKVSNKALPAPIEKTISKAKGQPREPQVYTLPPSRDELTRNQVSLTCLVKGFYPSDIAVEWESNGQPENNYKTTPPVLDSDGSFFLYSKLTVDKSRWQQGNVFSCSVMHEALHNHYTQKSLSLSPGGGGGCGGHA
modifications: cysteine residue of the C-terminal metal binding motif GCGGHA conjugated with one Mal-Peptide 2-DOTA bundle (three DOTA on a maleimido-ethyl peptide core)
notes: also called recombinant 2-chain (scFv α CD19)-Fc-MBM-3 X 2 DOTA bundles; 2-chain (VL-VH scFv α CD19)-Fc-MBM-3 conjugated with two DOTA bundles
Take B1: the binding result was “binds”.
